Test results taken from US20200024330A1.

How the values were obtained:
Test in all cases: cell-based or functional assay
[1] = target: HIV-1 Env of isolate 93IN905 (HIV-1)
[2] = target: HIV-1 Env of isolate 93MW959 (HIV-1)
[3] = target: HIV-1 Env of isolate 97ZA012 (HIV-1)
[4] = target: HIV-1 Env of isolate 98IN022 (HIV-1)
[5] = target: HIV-1 Env of isolate JRCSF (HIV-1) (UniProt P20871)
[6] = target: HIV-1 Env of isolate MGRM-Chronic-B-010 (HIV-1)
[7] = target: HIV-1 Env of isolate MGRM-Chronic-B-011 (HIV-1)
[8] = target: HIV-1 Env of isolate MGRM-Chronic-B-012 (HIV-1)
[9] = target: HIV-1 Env of isolate MGRM-Chronic-B-017 (HIV-1)
[10] = target: HIV-1 Env of isolate MGRM-Chronic-B-018 (HIV-1)
[11] = target: HIV-1 Env of isolate MGRM-Chronic-B-020 (HIV-1)
[12] = target: HIV-1 Env of isolate MGRM-Chronic-B-023 (HIV-1)
[13] = target: HIV-1 Env of isolate MGRM-Chronic-B-024 (HIV-1)
[14] = target: HIV-1 Env of isolate MGRM-D-011 (HIV-1)
[15] = target: HIV-1 Env of isolate MGRM-D-012 (HIV-1)
[16] = target: HIV-1 Env of isolate MGRM-D-013 (HIV-1)
[17] = target: HIV-1 Env of isolate MGRM-D-014 (HIV-1)
[18] = target: HIV-1 Env of isolate MGRM-D-016 (HIV-1)
[19] = target: HIV-1 Env of isolate MGRM-D-018 (HIV-1)
[20] = target: HIV-1 Env of isolate MGRM-D-019 (HIV-1)
[21] = target: HIV-1 Env of isolate MGRM-D-020 (HIV-1)
[22] = target: HIV-1 Env of isolate MGRM-D-021 (HIV-1)
[23] = target: HIV-1 Env of isolate MGRM-D-022 (HIV-1)
[24] = target: HIV-1 Env of isolate MGRM-D-024 (HIV-1)
[25] = target: HIV-1 Env of isolate MGRM-D-026 (HIV-1)
[26] = target: HIV-1 Env of isolate MGRM-D-028 (HIV-1)
[27] = target: HIV-1 Env of isolate MGRM-D-029 (HIV-1)
[28] = target: HIV-1 Env of isolate MGRM-F1-004 (HIV-1)
[29] = target: HIV-1 Env of isolate MGRM-F1-006 (HIV-1)
[30] = target: HIV-1 Env of isolate MGRM-F1-008 (HIV-1)
[31] = target: HIV-1 Env of isolate MGRM-F1-010 (HIV-1)
[32] = target: HIV-1 Env of isolate MGRM-F1-012 (HIV-1)
[33] = target: HIV-1 Env of isolate MGRM-F1-013 (HIV-1)
[34] = target: HIV-1 Env of isolate MGRM-F1-014 (HIV-1)
[35] = target: HIV-1 Env of isolate MGRM-F1-015 (HIV-1)
[36] = target: HIV-1 Env of isolate MGRM-F1-016 (HIV-1)
[37] = target: HIV-1 Env of isolate MGRM-F1-017 (HIV-1)
[38] = target: HIV-1 Env of isolate MGRM-F1-018 (HIV-1)
[39] = target: HIV-1 Env of isolate MGRM-F1-020 (HIV-1)
[40] = target: HIV-1 Env of isolate MGRM-F1-021 (HIV-1)
[41] = target: HIV-1 Env of isolate MGRM-F1-022 (HIV-1)
[42] = target: HIV-1 Env of isolate MGRM-F1-023 (HIV-1)
[43] = target: HIV-1 Env of isolate NL43 (HIV-1)
[44] = target: HIV-1 Env of isolate PVO.4 (HIV-1)
[45] = target: HIV-1 Env of isolate QH0692.42 (HIV-1)
[46] = target: HIV-1 Env of isolate SC422661.8 (HIV-1)
[47] = target: HIV-1 Env of isolate SF162 (HIV-1) (UniProt P19550)
[48] = target: HIV-1 Env of isolate THR0.18 (HIV-1)
[49] = target: HIV-1 Env of isolate TRJ04551.58 (HIV-1)
[50] = target: HIV-1 Env of isolate TRO.11 (HIV-1)
[51] = target: HIV-1 Env of isolate VLGCB3 (HIV-1)

PGT-145 (antibody), sequence (VH): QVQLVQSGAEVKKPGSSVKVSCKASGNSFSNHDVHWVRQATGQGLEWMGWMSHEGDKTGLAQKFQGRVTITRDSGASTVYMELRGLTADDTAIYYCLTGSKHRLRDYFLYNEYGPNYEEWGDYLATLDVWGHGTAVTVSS
PGT-145 (antibody), sequence (VL): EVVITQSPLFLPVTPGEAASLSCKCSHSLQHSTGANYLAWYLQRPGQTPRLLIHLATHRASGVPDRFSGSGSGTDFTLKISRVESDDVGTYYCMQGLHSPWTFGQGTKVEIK
PGT-144 (antibody), sequence (VH): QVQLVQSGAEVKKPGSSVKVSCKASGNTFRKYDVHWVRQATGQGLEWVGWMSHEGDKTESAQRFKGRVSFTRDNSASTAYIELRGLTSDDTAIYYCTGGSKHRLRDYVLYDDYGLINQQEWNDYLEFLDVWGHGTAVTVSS
PGT-144 (antibody), sequence (VL): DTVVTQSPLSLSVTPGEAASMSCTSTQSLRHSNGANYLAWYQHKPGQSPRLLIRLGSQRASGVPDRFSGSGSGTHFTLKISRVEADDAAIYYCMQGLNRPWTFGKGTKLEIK

PGT-144 (antibody) gave a neutralization IC50 [1] of 0.132 µg/mL, a neutralization IC50 [2] of 0.332 µg/mL and a neutralization IC50 [3] of over 50 µg/mL. For the same substance, the neutralization IC50 [4] was 0.171 µg/mL, the neutralization IC50 [5] was 0.149 µg/mL and the neutralization IC50 [6] was over 50 µg/mL. The neutralization IC50 [7] was 5.64 µg/mL, the neutralization IC50 [8] was over 50 µg/mL and the neutralization IC50 [9] was 0.712 µg/mL. For the same substance, the neutralization IC50 [10] was 2.4 µg/mL, the neutralization IC50 [11] was over 50 µg/mL and the neutralization IC50 [12] was over 50 µg/mL. For the same substance, the neutralization IC50 [13] was 0.04 µg/mL, the IC50, pseudovirus neutralization [14] was over 50 µg/mL and the IC50, pseudovirus neutralization [15] was over 50 µg/mL. For the same substance, the IC50, pseudovirus neutralization [16] was over 50 µg/mL, the IC50, pseudovirus neutralization [17] was 0.113 µg/mL and the IC50, pseudovirus neutralization [18] was over 50 µg/mL. For the same substance, the IC50, pseudovirus neutralization [19] was over 50 µg/mL, the IC50, pseudovirus neutralization [20] was over 50 µg/mL and the IC50, pseudovirus neutralization [21] was over 50 µg/mL. For the same substance, the IC50, pseudovirus neutralization [22] was over 50 µg/mL, the IC50, pseudovirus neutralization [23] was over 50 µg/mL and the IC50, pseudovirus neutralization [24] was over 50 µg/mL. It also gave an IC50, pseudovirus neutralization [25] of over 50 µg/mL, an IC50, pseudovirus neutralization [26] of over 50 µg/mL and an IC50, pseudovirus neutralization [27] of 0.459 µg/mL. The IC50, pseudovirus neutralization [28] was 0.105 µg/mL, the IC50, pseudovirus neutralization [29] was 20.6 µg/mL and the IC50, pseudovirus neutralization [30] was 0.507 µg/mL. The IC50, pseudovirus neutralization [31] was over 50 µg/mL, the IC50, pseudovirus neutralization [32] was over 50 µg/mL and the IC50, pseudovirus neutralization [33] was 0.509 µg/mL. The IC50, pseudovirus neutralization [34] was 0.014 µg/mL, the IC50, pseudovirus neutralization [35] was over 50 µg/mL and the IC50, pseudovirus neutralization [36] was over 50 µg/mL. For the same substance, the IC50, pseudovirus neutralization [37] was over 50 µg/mL, the IC50, pseudovirus neutralization [38] was over 50 µg/mL and the IC50, pseudovirus neutralization [39] was 8.93 µg/mL. The IC50, pseudovirus neutralization [40] was over 50 µg/mL, the IC50, pseudovirus neutralization [41] was 0.382 µg/mL and the IC50, pseudovirus neutralization [42] was 1.16 µg/mL. It also gave a neutralization IC50 [43] of over 50 µg/mL, a neutralization IC50 [44] of 0.535 µg/mL and a neutralization IC50 [45] of over 50 µg/mL. It also gave a neutralization IC50 [46] of over 50 µg/mL, a neutralization IC50 [47] of over 50 µg/mL and a neutralization IC50 [48] of 0.029 µg/mL. The neutralization IC50 [49] was over 50 µg/mL, the neutralization IC50 [50] was 4.73 µg/mL and the neutralization IC50 [51] was over 50 µg/mL.
For PGT-145 (antibody), the neutralization IC50 [1] was 0.002 µg/mL, the neutralization IC50 [2] was 1.2 µg/mL and the neutralization IC50 [3] was 0.915 µg/mL. The neutralization IC50 [4] was 0.005 µg/mL, the neutralization IC50 [5] was 0.002 µg/mL and the neutralization IC50 [6] was over 50 µg/mL. For the same substance, the neutralization IC50 [7] was 0.206 µg/mL, the neutralization IC50 [8] was 9.66 µg/mL and the neutralization IC50 [9] was 0.054 µg/mL. The neutralization IC50 [10] was 0.013 µg/mL, the neutralization IC50 [11] was over 50 µg/mL and the neutralization IC50 [12] was 0.009 µg/mL. It also gave a neutralization IC50 [13] of 0.018 µg/mL, an IC50, pseudovirus neutralization [14] of 14.7 µg/mL and an IC50, pseudovirus neutralization [15] of over 50 µg/mL. It also gave an IC50, pseudovirus neutralization [16] of 3.48 µg/mL, an IC50, pseudovirus neutralization [17] of 2.51 µg/mL and an IC50, pseudovirus neutralization [18] of over 50 µg/mL. The IC50, pseudovirus neutralization [19] was 0.065 µg/mL, the IC50, pseudovirus neutralization [20] was 0.111 µg/mL and the IC50, pseudovirus neutralization [21] was 10 µg/mL. It also gave an IC50, pseudovirus neutralization [22] of over 50 µg/mL, an IC50, pseudovirus neutralization [23] of 34.3 µg/mL and an IC50, pseudovirus neutralization [24] of 0.224 µg/mL. For the same substance, the IC50, pseudovirus neutralization [25] was 0.41 µg/mL, the IC50, pseudovirus neutralization [26] was 0.721 µg/mL and the IC50, pseudovirus neutralization [27] was 0.03 µg/mL. For the same substance, the IC50, pseudovirus neutralization [28] was 0.361 µg/mL, the IC50, pseudovirus neutralization [29] was 13.6 µg/mL and the IC50, pseudovirus neutralization [30] was 0.228 µg/mL. For the same substance, the IC50, pseudovirus neutralization [31] was 3.32 µg/mL, the IC50, pseudovirus neutralization [32] was 0.113 µg/mL and the IC50, pseudovirus neutralization [33] was 0.402 µg/mL. The IC50, pseudovirus neutralization [34] was 0.009 µg/mL, the IC50, pseudovirus neutralization [35] was 1.76 µg/mL and the IC50, pseudovirus neutralization [36] was 17.5 µg/mL. The IC50, pseudovirus neutralization [37] was 0.286 µg/mL, the IC50, pseudovirus neutralization [38] was 1.02 µg/mL and the IC50, pseudovirus neutralization [39] was 0.816 µg/mL. The IC50, pseudovirus neutralization [40] was 8.04 µg/mL, the IC50, pseudovirus neutralization [41] was 0.009 µg/mL and the IC50, pseudovirus neutralization [42] was 5.88 µg/mL. For the same substance, the neutralization IC50 [43] was 0.006 µg/mL, the neutralization IC50 [44] was 0.299 µg/mL and the neutralization IC50 [45] was over 50 µg/mL. It also gave a neutralization IC50 [46] of 0.079 µg/mL, a neutralization IC50 [47] of over 50 µg/mL and a neutralization IC50 [48] of 0.013 µg/mL. For the same substance, the neutralization IC50 [49] was over 50 µg/mL, the neutralization IC50 [50] was 0.044 µg/mL and the neutralization IC50 [51] was over 50 µg/mL.
